B1: GLUE7: Arabidopsis GLUE/SWEET sugar transporter protein (protein, UniProt Q8LBF7 1-258, looked up)
Bidirectional sugar …: MVFAHLNLLRKIVGIIGNFIALCLFLSPTPTFVRIVKKKSVEEYSPIPYLATLINCLVWVLYGLPTVHPDSTLVITINGTGILIEIVFLTIFFVYCGRQKQRLIISAVIAAETAFIAILAVLVLTLQHTTEKRTMSVGIVCCVFNVMMYASPLSVMKMVIKTKSVEFMPFWLSVAGFLNAGVWTIYALMPFDPFMAIPNGIGCLFGLAQLILYGAYYKSTKRIMAERENQPGYVGLSSAIARTGSEKTANTNQEPNNV
B2: GLUE16: Arabidopsis GLUE/SWEET sugar transporter protein (protein, UniProt Q9LUR4 1-230, looked up)
Bidirectional sugar …: MADLSFYVGVIGNVISVLVFLSPVETFWRIVQRRSTEEYECFPYICTLMSSSLWTYYGIVTPGEYLVSTVNGFGALAESIYVLIFLFFVPKSRFLKTVVVVLALNVCFPVIAIAGTRTLFGDANSRSSSMGFICATLNIIMYGSPLSAIKTVVTTRSVQFMPFWLSFFLFLNGAIWGVYALLLHDMFLLVPNGMGFFLGIMQLLIYAYYRNAEPIVEDEEGLIPNQPLLA
B3: GLUE14: Arabidopsis GLUE/SWEET sugar transporter protein (protein, UniProt Q9SW25 1-281, looked up)
Bidirectional sugar …: MVLTHNVLAVTFGVLGNIISFIVFLAPVPTFVRICKKKSIEGFESLPYVSALFSAMLWIYYALQKDGAGFLLITINAVGCFIETIYIILFITYANKKARISTLKVLGLLNFLGFAAIILVCELLTKGSNREKVLGGICVGFSVCVFAAPLSIMRVVIRTKSVEFMPFSLSLFLTISAITWLFYGLAIKDFYVALPNILGAFLGAVQMILYVIFKYYKTPLVVDETEKPKTVSDHSINMVKLSSTPASGDLTVQPQTNPDVSHPIKTHGGDLEDQMDKKMPN
B4: GLUE17: Arabidopsis GLUE/SWEET sugar transporter protein (protein, UniProt Q84WN3 1-241, looked up)
Bidirectional sugar …: MAEASFYIGVIGNVISVLVFLSPVETFWKIVKRRSTEEYKSLPYICTLLGSSLWTYYGIVTPGEYLVSTVNGFGALVETIYVSLFLFYAPRHLKLKTVDVDAMLNVFFPIAAIVATRSAFEDEKMRSQSIGFISAGLNIIMYGSPLSAMKTVVTTKSVKYMPFWLSFFLFLNGAIWAVYALLQHDVFLLVPNGVGFVFGTMQLILYGIYRNAKPVGLSNGLSEIAQDEEEGLTSRVEPLLS
B5: GLUE8: Arabidopsis sugar transporter protein expressed in the tapetum, paralog of SWEET1 (protein, UniProt Q8LFH5 1-239, looked up)
Bidirectional sugar …: MVDAKQVRFIIGVIGNVISFGLFAAPAKTFWRIFKKKSVEEFSYVPYVATVMNCMLWVFYGLPVVHKDSILVSTINGVGLVIELFYVGVYLMYCGHKKNHRRNILGFLALEVILVVAIILITLFALKGDFVKQTFVGVICDVFNIAMYGAPSLAIIKVVKTKSVEYMPFLLSLVCFVNAGIWTTYSLIFKIDYYVLASNGIGTFLALSQLIVYFMYYKSTPKEKTVKPSEVEISATERV
B6: GLUE4: Arabidopsis GLUE/SWEET sugar transporter protein (protein, UniProt Q944M5 1-251, looked up)
Bidirectional sugar …: MVNATVARNIAGICGNVISLFLFLSPIPTFITIYKKKKVEEYKADPYLATVLNCALWVFYGLPMVQPDSLLVITINGTGLAIELVYLAIFFFFSPTSRKVKVGLWLIGEMVFVGIVATCTLLLFHTHNQRSSFVGIFCVIFVSLMYIAPLTIMSKVIKTKSVKYMPFSLSLANFLNGVVWVIYALIKFDLFILIGNGLGTVSGAVQLILYACYYKTTPKDDEDEEDEENLSKVNSQLQLSGNSGQAKRVSA
B7: GLUE3: Arabidopsis GLUE/SWEET sugar transporter protein (protein, UniProt Q6NQN5 1-263, looked up)
Bidirectional sugar …: MGDKLRLSIGILGNGASLLLYTAPIVTFSRVFKKKSTEEFSCFPYVMTLFNCLIYTWYGLPIVSHLWENLPLVTINGVGILLESIFIFIYFYYASPKEKIKVGVTFVPVIVGFGLTTAISALVFDDHRHRKSFVGSVGLVASISMYGSPLVVMKKVIETRSVEYMPFYLSFFSFLASSLWLAYGLLSHDLFLASPNMVATPLGILQLILYFKYKNKKDLAPTTMVITKRNDHDDKNKATLEFVVDVDRNSDTNEKNSNNASSI
B8: GLUE5: Arabidopsis GLUE/SWEET sugar transporter protein (protein, UniProt Q9FM10 1-240, looked up)
Bidirectional sugar …: MTDPHTARTIVGIVGNVISFGLFCAPIPTMVKIWKMKSVSEFKPDPYVATVLNCMMWTFYGLPFVQPDSLLVITINGTGLFMELVYVTIFFVFATSPVRRKITIAMVIEVIFMAVVIFCTMYFLHTTKQRSMLIGILCIVFNVIMYAAPLTVMKLVIKTKSVKYMPFFLSLANFMNGVVWVIYACLKFDPYILIPNGLGSLSGIIQLIIYITYYKTTNWNDDDEDKEKRYSNAGIELGQA
B9: GLUE13: Arabidopsis GLUE/SWEET sugar transporter protein (protein, UniProt Q9FGQ2 1-294, looked up)
Bidirectional sugar …: MALTNNLWAFVFGILGNIISFVVFLAPVPTFVRICKKKSTEGFQSLPYVSALFSAMLWIYYAMQKDGTAFLLITINAFGCVIETIYIVLFVSYANKKTRISTLKVLGLLNFLGFAAIVLVCELLTKGSTREKVLGGICVGFSVSVFAAPLSIMRVVVRTRSVEFMPFSLSLFLTISAVTWLFYGLAIKDFYVALPNVLGAFLGAVQMILYIIFKYYKTPVAQKTDKSKDVSDHSIDIAKLTTVIPGAVLDSAVHQPPALHNVPETKIQLTEVKSQNMTDPKDQINKDVQKQSQV

Assays:
HEK293T cells = assay: Glucose transport by GLUE/SWEET coexpressed with FRET glucose sensor (cytosolic or ER) in HEK293T cells; type: cell-based, human; conditions: for glucose accumulation in cytosol (negative FRET ratio change): cytosolic FRET glucose sensor
Method: Individual cells were analyzed by quantitative ratio imaging of CFP and Venus emission (acquisition intervals 5 sec; Fc/D corresponds to the normalized emission intensity ratio). HEK293T/FLIPglu600μΔ13V cells were perfused with medium, followed by square pulses of increasing glucose concentrations. […] Cells coexpressing the sensor and SWEET1 accumulated glucose as evidenced by the negative FRET ratio change with an amplitude that correlates with the increasing external glucose supply (blue line). Data points are mean±SD (n>10).
The sensor FLIPglu600μΔ13V^ER was targeted to the lumen of the ER (analysis performed as under FIG. 9A, acquisition intervals 10 sec). […] Cells coexpressing the sensor and SWEET1 accumulated glucose in the ER as evidenced by the negative ratio change induced by perfusion with glucose. Data points are mean±SD (n>10).
By utilizing the above described HEK293T cell system, a novel class of Arabidopsis sugar transporters was identified that are involved in nectar production in plants and with all hallmarks of the glucose transport activity described in root tips. A screening assay was then initiated in which candidate transporter genes from Arabidopsis were coexpressed with the FRET glucose sensor in the HEK293T cell expression system.
FRET analysis. Cell culture, transfection, image acquisition and FRET analysis were performed as described previously.
To identify novel glucose transporters from the reference plant Arabidopsis, genes encoding uncharacterized polytopic membrane proteins from the plant membrane protein database Aramemnon, available on the internet at “aramemnon.botanik.uni-koeln.de”,—were screened using a mammalian expression system. Candidate genes were coexpressed with a high-sensitivity FRET glucose sensor (i.e. FLIPglu600μΔ13V) in human embryonic kidney HEK293T cells, which are characterized by low endogenous glucose uptake activity. […] To determine whether SWEET1 can also mediate efflux from the cytosol, we expressed the FRET glucose sensor FLIPglu600μΔ13V^ER in the lumen of the endoplasmic reticulum (ER; FIG. 9B). Topologically, uptake across the plasma membrane (PM) is initiated from the extracellular side of the carrier, while ‘export’ to the ER is initiated from the cytoplasmic side of the transporter (FIG. 9C). […] SWEET1 may thus function as a glucose uniporter, for which the direction of transport depends only on the glucose gradient across the membrane. […] Furthermore, the mRNAs levels of known human glucose transporters in the GLUT and SGLT families were not induced in HEK293T cells expressing SWEET1 (FIG. 12B). […] In support of a role in cellular uptake and efflux, a constitutively expressed SWEET1-YFP fusion localizes to the PM in Arabidopsis leaves (FIG. 9G). […] Other proteins, possibly related to SWEET1, may be involved in sugar transport in roots.

yeast strain YSL2-1 = assay: Complementation growth assay of yeast strain YSL2-1/EBY4000 lacking all 18 hexose transporter genes; type: cell-based; conditions: for complementation on fructose: 2% fructose; for complementation of yeast hexose transport mutant on glucose: 2% glucose; for complementation on mannose: 2% mannose; for sensitivity to 2-deoxyglucose: various 2-Deoxy-glucose levels
Method: Cells expressing yeast homolog, HXTS, or mammalian homolog, GLUT1, were used as controls. Os8N3 and RAG1AP1 were homologs from rice and mammalian. The yeast cells were grown in SD-Ura liquid medium with 2% maltose to early log phase and 5 m of serious dilutions were spotted on the media containing YPM or SD-URA containing 2% of maltose, fructose, or mannose. […]
(§1) Cells expressing yeast homolog, HXT5, or mammalian homolog, GLUT1, were used as controls. Os8N3 and RAG1AP1 were homologs from rice and mammalian. The yeast cells were grown in SD-Ura liquid medium with 2% maltose to early log phase and 5 m of serious dilutions were spotted on the media containing YPM or SD-URA containing 2% glucose.
as §1, with “various 2-Deoxy-glucose levels.” for “2% glucose.”
A modified version of the yeast strain EBY4000 (hxt1 through −17Δ::loxP gal2Δ::loxP stl1Δ::loxP agt1Δ::loxP ydl247wΔ::loxP yjr160cΔ::loxP) carrying a cytosolic invertase (YSL2-1) was transformed with SWEETs and HXTS and grown on SD (synthetic deficient) medium supplemented with 2% maltose and required auxotrophic markers. For complementation growth assays, cells were grown overnight in liquid minimum medium to OD600˜0.6 and then diluted to OD600˜0.2 using water. Serial dilutions (1×, 5×, 25×, and 125×) were plated on SD media containing either 2% maltose (as control) or 2% glucose and the relevant auxotrophic markers. Growth was documented by scanning (CanoScan, Canon) the plates after 2-5 days at 30° C.

Molecule	glucose accumulation in cytosol (negative FRET ratio change) (HEK293T cells)	complementation of yeast hexose transport mutant on glucose (yeast strain YSL2-1)	complementation on mannose (yeast strain YSL2-1)	sensitivity to 2-deoxyglucose (yeast strain YSL2-1)	further results
GLUE12: Arabidopsis GLUE/SWEET sugar transporter protein	function as glucose transporters with different activities	–	–	–	–
B1	–	transport glucose	transport fructose and mannose	transport 2-deoxyglucose	complementation on fructose (yeast strain YSL2-1): transport fructose
B2	–	–	–	transport 2-deoxyglucose	–
B3	–	–	–	transport 2-deoxyglucose	–
B4	–	–	–	transport 2-deoxyglucose	–
B5	function as glucose transporters with different activities	transport glucose	transport mannose	transport 2-deoxyglucose	glucose efflux from cytosol into the ER (HEK293T cells; ER-targeted sensor FLIPglu600μΔ13V ER): ‘efflux’ glucose from the cytosol into the ER; glucose accumulation in cytosol (negative FRET ratio change) (HEK293T cells; listed as SWEET8): also functions as a uniporter; complementation of yeast hexose transport mutant on glucose (yeast strain YSL2-1; listed as SWEET8/RPG1): complements the yeast glucose transport mutant
B6	–	transport glucose	transport fructose and mannose	transport 2-deoxyglucose	complementation on fructose (yeast strain YSL2-1): transport fructose
B7	–	–	–	transport 2-deoxyglucose	–
B8	–	transport glucose	transport mannose	transport 2-deoxyglucose	–
B9	function as glucose transporters with different activities	–	–	–	–

Reference: patent US10246721B2, “Sugar transporters” (CARNEGIE INSTITUTION OF WASHINGTON, priority 2009, dated 2019)
